Data: US20240116985A1 (published 2024)
Starred links: 1 amine or outer side, 2 acyl side, 3 side chain; linkers in the order of their positions; H or OH if unused. Positions of bridges follow the written chain, without caps; N, C: chain ends. Non-standard residues stand in square brackets, D forms with d. Primed or numbered codes have the meaning given here. PyrS2″ = (S)-3-amino-1-((pent-4-en-1-yloxy)carbonyl)pyrrolidine-3-carboxylic acid (stapling residue), C=CCCCOC(=O)N1CC[C@@](N[*:1])(C(=O)[*:2])C1; B5(5) = 2,2-bis(4-pentenyl)glycine, 2-amino-2-(pent-4-en-1-yl)hept-6-enoic acid (stitching residue), C=CCCCC(CCCC=C)(N[*:1])C(=O)[*:2]; B5(33) = 2-amino-2-(pent-4-en-1-yl)hept-6-enoic acid (bis-pentenylglycine, two olefin side chains), C=CCCCC(CCCC=C)(N[*:1])C(=O)[*:2]; PyrS2 = (S)-3-amino-1-((pent-4-en-1-yloxy)carbonyl)pyrrolidine-3-carboxylic acid, C=CCCCOC(=O)N1CC[C@@](N[*:1])(C(=O)[*:2])C1; B5(3) = 2,2-bis(4-pentenyl)glycine (stitching residue), C=CCCCC(CCCC=C)(N[*:1])C(=O)[*:2]; Phe(3-COOH) = N[C@@H](Cc1cccc(C(=O)O)c1)C(=O)O; Phe(2-Cl) = N[C@@H](Cc1ccccc1Cl)C(=O)O; 1Nal = N[C@@H](Cc1cccc2ccccc12)C(=O)O; 2Nal = N[C@@H](Cc1ccc2ccccc2c1)C(=O)O; Bta = N[C@@H](Cc1csc2ccccc12)C(=O)O; αAllylPro = C=CC[C@@]1(C(=O)O)CCCN1; tBuAla = CC(C)(C)C[C@H](N)C(=O)O; 3Thi = N[C@@H](Cc1ccsc1)C(=O)O; PyrS2(4) = not defined here

Assays:
B-cat-Halo = target: T1, B-cat-Halo (Homo sapiens (Human), UniProt P35222 1-781); experiment: cell-based or functional assay
T1 sequence: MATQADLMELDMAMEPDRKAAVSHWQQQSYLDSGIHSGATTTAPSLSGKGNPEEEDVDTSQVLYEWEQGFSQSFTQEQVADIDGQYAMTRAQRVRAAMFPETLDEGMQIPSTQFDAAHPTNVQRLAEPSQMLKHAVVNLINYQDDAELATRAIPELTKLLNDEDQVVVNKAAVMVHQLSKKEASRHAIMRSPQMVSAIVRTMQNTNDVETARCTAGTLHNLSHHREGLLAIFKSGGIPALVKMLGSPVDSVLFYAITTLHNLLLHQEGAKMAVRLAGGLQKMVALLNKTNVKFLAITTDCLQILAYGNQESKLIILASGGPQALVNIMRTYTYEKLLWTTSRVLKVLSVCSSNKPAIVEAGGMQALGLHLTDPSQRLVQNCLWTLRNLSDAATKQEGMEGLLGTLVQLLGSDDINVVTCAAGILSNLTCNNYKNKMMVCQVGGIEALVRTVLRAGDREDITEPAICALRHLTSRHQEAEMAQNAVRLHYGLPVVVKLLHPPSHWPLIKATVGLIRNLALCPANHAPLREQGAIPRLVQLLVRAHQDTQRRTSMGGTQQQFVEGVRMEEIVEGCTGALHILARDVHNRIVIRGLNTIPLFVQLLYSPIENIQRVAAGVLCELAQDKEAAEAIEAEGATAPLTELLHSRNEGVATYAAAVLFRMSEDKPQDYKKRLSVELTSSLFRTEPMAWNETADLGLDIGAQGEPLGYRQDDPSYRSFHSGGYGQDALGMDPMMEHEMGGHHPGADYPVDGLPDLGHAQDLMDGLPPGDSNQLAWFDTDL

[1] = target: T2, B-cat-Halo (beta-catenin HaloTag NanoBRET construct expressed in HEK293 cells) (Homo sapiens (Human), UniProt P35222 1-781); experiment: cell-based or functional assay
T2 sequence: T1 sequence

B1: I-2040 (peptide)
peptide: Ac-[αAllylPro]D[tBuAla][B5(3)]D[Phe(3-COOH)]AAFL[PyrS2″][Phe(2-Cl)][Bta]NAAA-NH2
modifications: staple 1-4, 4-11
NanoBRET Abs IC50 (B-cat-Halo): 2.8 µM

B2: I-1265 (peptide)
peptide: Ac-[αAllylPro]D[tBuAla][B5(33)]DTALFT[PyrS2]F[Bta]S-NH2
modifications: staple 1-4, 4-11
NanoBRET Abs IC50 [1]: 22.7 µM

B3: I-2036 (peptide)
peptide: Ac-[αAllylPro]D[tBuAla][B5(3)]D[Phe(3-COOH)]AAFA[PyrS2″][Phe(2-Cl)][Bta]N-NH2
modifications: staple 1-4, 4-11
NanoBRET Abs IC50 (B-cat-Halo): 12.9 µM

B4: I-2037 (peptide)
peptide: Ac-[αAllylPro]D[tBuAla][B5(3)]D[Phe(3-COOH)]AAFF[PyrS2″][Phe(2-Cl)][Bta]N-NH2
modifications: staple 1-4, 4-11
NanoBRET Abs IC50 (B-cat-Halo): 5 µM

B5: I-2044 (peptide)
peptide: Ac-[αAllylPro]D[tBuAla][B5(3)]D[Phe(3-COOH)]AAFF[PyrS2″][3Thi][Bta]N-NH2
modifications: staple 1-4, 4-11
NanoBRET Abs IC50 (B-cat-Halo): 2.6 µM

B6: I-1267 (peptide)
peptide: Ac-[αAllylPro]D[tBuAla][B5(5)]DTAA[2Nal]T[PyrS2″]F[Bta]S-NH2
modifications: staple 1-4, 4-11
NanoBRET Abs IC50 [1]: 36.9 µM

B7: I-2035 (peptide)
peptide: Ac-[αAllylPro]D[tBuAla][B5(3)]D[Phe(3-COOH)]AAFA[PyrS2″][Phe(2-Cl)][Bta]N-NH2
modifications: staple 1-4, 4-11; also: staple isomer, earlier eluting HPLC peak
NanoBRET Abs IC50 (B-cat-Halo): 14.5 µM

B8: I-1266 (peptide)
peptide: Ac-[αAllylPro]D[tBuAla][B5(5)]DTAA[1Nal]T[PyrS2″]F[Bta]S-NH2
modifications: staple 1-4, 4-11
NanoBRET Abs IC50 [1]: > 20 µM

B9: I-2042 (peptide)
peptide: Ac-[αAllylPro]D[tBuAla][B5(3)]D[Phe(3-COOH)]AAFA[PyrS2″][3Thi][Bta]N-NH2
modifications: staple 1-4, 4-11
NanoBRET Abs IC50 (B-cat-Halo): 10 µM

B10: I-2038 (peptide)
peptide: Ac-[αAllylPro]D[tBuAla][B5(3)]D[Phe(3-COOH)]AAFS[PyrS2(4)][Phe(2-Cl)][Bta]N-NH2
modifications: staple 1-4, 4-11; not fully specified; reading uncertain; also: staple isomer, earlier eluting HPLC peak
NanoBRET Abs IC50 (B-cat-Halo): 11.8 µM

B11: I-2033 (peptide)
peptide: Ac-[αAllylPro]D[tBuAla][B5(3)]D[Phe(3-COOH)]AAFN[PyrS2″][Phe(2-Cl)][Bta]F-NH2
modifications: staple 1-4, 4-11
NanoBRET Abs IC50 (B-cat-Halo): 9.5 µM

B12: I-1264 (peptide)
peptide: Ac-[αAllylPro]D[tBuAla][B5(33)]DTLAFT[PyrS2]F[Bta]S-NH2
modifications: staple 1-4, 4-11
NanoBRET Abs IC50 [1]: > 20 µM

B13: I-2045 (peptide)
peptide: Ac-[αAllylPro]D[tBuAla][B5(3)]D[Phe(3-COOH)]AAFS[PyrS2″][3Thi][Bta]N-NH2
modifications: staple 1-4, 4-11
NanoBRET Abs IC50 (B-cat-Halo): 13.5 µM

B14: I-2039 (peptide)
peptide: Ac-[αAllylPro]D[tBuAla][B5(3)]D[Phe(3-COOH)]AAFS[PyrS2″][Phe(2-Cl)][Bta]N-NH2
modifications: staple 1-4, 4-11
NanoBRET Abs IC50 (B-cat-Halo): 10.5 µM
